# Results published in the DeepSol protein solubility set.
# Assay: soluble on expression in E. coli; label from the status in PepcDB or PDB records
row,Sequence,soluble on expression in E. coli
1,MGSDKIHHHHHHMDTMVSNSQTYLKILADLIKIKSVNDHELEVAEYLQDLFQENGIEAKILPLEGQRANLVAEIGEGAPVLAVSGHMDVVDPGNLAAWDNDPFTMTEKDGKLFGRGITDMKAGLAALVIAMIELKKQGLPKKGTIRLLATAGEEVGEEGSAAFYRDHYMEDAAGLLIAEPSTVYGTASEQKGSFDIKFTSKGTSVHSSTPEKGYNALVPLMQLLNEANTYFETIPAGEMGPVRFNIDVLNGGSQINSLPDLATALVNVRTIPEYDNNQVAKQIETFVKSYNANGAQINTDLIMNEFPIATSPSNQLVKIIQSLGKEYAGRDIVVAASPGITDASNLAKDKPHDFPFAVYGPGDGSQHQVNESLPKQMYLDFIEIYQKLFIEFLEK,not soluble
2,SENLTMNIDSTKTIQGTILPVLDFKTEKENVFTFKNTANLNLLIKHGQVINLINKLEFSTYGNKVTVSGGYVHTEYRYLLHHVFEVYPYVESQWAESRGMKYKVSTGLQSRYR,not soluble
3,DHPFTSAPTFGDFGSNQQAMPLYRVEPVYPSRALKRGVEGFVTLSFTIDTTGKAVDINVVDANPKRMFEREAMQALKKWKYQPQIVDGKAIEQPGQTVTVEFKIAK,soluble
4,MAKTIRDESTASAYWAAVNTFCALKDVHVIADAPVGCYNLAGVAVMDYTDAIPYLENLTPTSLTEREISSSGSSQIVQETIEKLMGSGKQLILVSSAESEMIGSDHQHMLAMKYPSVRFFASDSLGENEWQGRDRALAWLFDQFDDGQPSQIEPGTVSIIGPTYGCFNSPADLAEVKRLVTGAGGRVAHVYPFESKAAEITKLKNSAAIVVMYREFGAALAEKLGRPVLYAPFGIEETDRFIGKIGRLCGTPEQATRFIAEEKRTTLSPVWDLWRGPQSEWFPTIRFGVVASKSYADGIKHVLGDELGMQCLFSLDSAEVDNNAVRKEIVQKQPQFLYGRMPDKIYLAEADAKSRFIPAGFPGPIVRRALGTPFMGHSGVVWLVQEIVNALYDTLFNFLPITRRQQAAAPTKPLKWTPEANAILDGIVRKAPFISQISFGRELKRKAENLAASRGADTVTPDILQQLG,soluble
5,GPDSEMCKDYRVLPRIGYLCPKDLKPVCGDDGQTYNNPCMLCHENLIRQTNTHIRSTGKCEESSTPGTTAASMPPSDE,soluble
6,LKVLKRFDIETDYGSAIIADTITGRIEYTVATGGCIFPEVSRTIQTLENMGASVFIASGDSRKFIERLGNIVGVQNKCLMPEAHHKLKRDLILNLKQDGYTVIMVGDASNDILAMEESDLSVITLQNGNVSKKALETAQIKIENISEI,not soluble
7,MSLSSTFSARGPLLTAAVLLVGLLAGCASSQSATAPSPDDSGQAQSPAQNETGENGLKPFGDVVPDTARTDPGLLTTHRFDGKLYVEIPDSLIGRELLMVSRAAQTPDGFGYGGEKTATQVLRWQRRGDQLYLRVVSHEDMAQEDDPVYQAVQNSNLEPIIQSFSIEALNEDSTGVVAEVTDLFTSDVPSLGIPSAAREEYRVRRLDGDRTYIKGVESFPENTDIEAVLTYQAENPPSNASTKTLTVSMNHSMVLLPKEPMQPRLCDDRVGYFSVERVNYSSDEQRATEACFITRWKLEPKDPEAYARGELVEPKEPIVYYIDPATPKKWRPYLKQGVEAWQSTFREAGFKNAIIAKDPPSAEEDSTFDPDDIRYSTIRYFASEVQNAYGPHVHDPRSGEILESDIGWYHNVMNLLRNWYFVQTAAVNPEARKPVFSTEVMGKLVRFVAAHEVGHTLGLPHNMGSSNAVPVDSLRSPSYTADHGTAPSIMDYARFNYVAQPGDGVENFLPRIGTYDEWAVRWGYTKRPTGSPEEQAQTLDEMILEHTDDPRYFFGASGSIDPRSQSEDLGRDAMEASRLGIANLKRILPNLIQWTSRDGEGYATLEELYGAVVNQWRRYMGHVSQHLGGVHETPKTYGQEGPVYEPVSATDQERAVDFLLTHAFETPTWMVEADVLRRIEHAGALERVREAQVGVLDGVLDPERMARMLEAEAMSEDDVYGVGDLFGDLRGGVWAELESGSVIDPYRRNLQRGYLERLDYLMTAEVEAPPPEYQQYIDYTPVDVSQSDIRPYVRAELKTLRDDVQQGLRRTTDETTEMHLQDVLARIDQTLNGTEGHHHHHH,not soluble
8,MGSDKIHHHHHHMAAQNAFEQKKRAILNEIDSTQPDLSPKGTIDELCLPIIDLINASADMVTTSSCSGRVSVFLEGTKSYNGEVKIGGKGQGGKWLYVTHDREKVIGWLDELKSKSEFSFELSGKEIPTEKVTGSIRYILYKYEPFILHVKCRDFQAASKLYNTAMSCGFRESGIGSNNLVAIRINIKLDVPLGYLDETSGTLKFFVTPEYVSVLDSLSLSKFDENTRKMQALYDRIEKELINCAPDVNSKVNITPIETKEERRERKKREGMERQRQLKSPQNVL,not soluble
9,MSPQKRVKNVQAQNRTSQGSSSFQTTLSAWKVKQDPSNSKNISKHGQNNPVGDYEHADDQAEEDALQMAVGYFEKGPIKASQNKDKTLEKHLKTVENVAWKNGLASEEIDILLNIALSGKFGNAVNTRILKCMIPATVISEDSVVKAVSWLCVGKCSGSTKVLFYRWLVAMFDFIDRKEQINLLYGFFFASLQDDALCPYVCHLLYLLTKKENVKPFRVRKLLDLQAKMGMQPHLQALLSLYKFFAPALISVSLPVRKKIYLQNSENLWKTALLAVKQRNRGPSPEPLKLMLGPANVRPLKRKWNSLSVIPVLNSSSYTKECGKKEMSLSDCLNRSGSFPLEQLQSFPQLLQNIHCLELPSQMGSVLNNSLLLHYINCVRDEPVLLRFHYWLSQTLQEECIWYKVNNYEHGKEFTNFLDTIIRAECFLQEGYYSCEAFLYKSLPLWDGLSCRSQFLQLVSWIPFSSFSEVKPLLFDHLAQLFFTSTIYFKCSVLQSLKELLQNWLLWLSMDIHMKPVTNSPLETTLGGSMNCVSKLIHYVGWLSTTAMRLESNNTFLLHFILDFYEKVCDIYINYDLPLVVLFPPGIFYSALLSLDTSILNQLCFIMHRYRKNLTAAKKNELVQKTKSEFNFSSKTYQEFNYYLTSMVGCLWTSKPFAKGIYIDPEILEKTGVAEYKNSLNVVHHPSFLSYAVSFLLQESPEERTVNVSSIRGKKWSWYLDYLFSQGLQGLKLFIRSSVHHSSIPRAEGINCNNQY,soluble
10,MKRVLIPGVILCGADVAQAVDDKNMYMHFFEEMTVYAPVPVPVNGNTHYTSESIERLPTGNGNISDLLRTNPAVRMDSTQSTSLNQGDIRPEKISIHGASPYQNAYLIDGISATNNLNPANESDASSATNISGMSQGYYLDVSLLDNVTLYDSFVPVEFGRFNGGVIDAKIKRFNADDSKVKLGYRTTRSDWLTSHIDENNKSAFNQGSSGSTYYSPDFKKNFYTLSFNQELADNFGVTAGLSRRQSDITRADYVSNDGIVAGRAQYKNVIDTALSKFTWFASDRFTHDLTLKYTGSSRDYNTSTFPQSDREMGNKSYGLAWDMDTQLAWAKLRTTVGWDHISDYTRHDHDIWYTELSCTYGDITGRCTRGGLGHISQAVDNYTFKTRLDWQKFAVGNVSHQPYFGAEYIYSDAWTERHNQSESYVINAAGKKTNHTIYHKGKGRLGIDNYTLYMADRISWRNVSLMPGVRYDYDNYLSNHNISPRFMTEWDIFANQTSMITAGYNRYYGGNILDMGLRDIRNSWTESVSGNKTLTRYQDLKTPYNDELAMGLQQKIGKNVIARANYVYREAHDQISKSSRTDSATKTTITEYNNDGKTKTHSFSLSFELAEPLHIRQVDINPQIVFSYIKSKGNLSLNNGYEESNTGDNQVVYNGNLVSYDSVPVADFNNPLKISLNMDFTHQPSGLVWANTLAWQEARKARIILGKTNAQYISEYSDYKQYVDEKLDSSLTWDTRLSWTPQFLQQQNLTISADILNVLDSKTAVDTTNTGVATYASGRTFWLDVSMKF,not soluble
11,MRVIEVKNLTFSYDGKHNVLEDVSFYVEKGDFLGIVGPNGAGKSTLLKLILGFLKPKSGEIYLFGKKIEEFKDWKRVGYVPQRLSVEHAFPGTVKELLSSVCEDKKEIDYLVEFLKLKNIVNKQFTKLSGGQQQRVLLAMALSYNPELILLDEPTVGLDVHAINHFMSILLDLNMNHKKSIVMISHDIGTLLKHASKILCLNKKVCYFGEPEGAIEYIEEAFGLRGFLHGVS,soluble
12,VAKRLDLTDVNIYYGSFHAVADVSLAILPRSVTAFIGPSGCGKTTVLRTLNRMHEVIPGARVEGAVLLDDQDIYAPGIDPVGVRRAIGMVFQRPNPFPAMSIRNNVVAGLKLQGVRNRKVLDDTAESSLRGANLWDEVKDRLDKPGGGLSGGQQQRLCIARAIAVQPDVLLMDEPCSSLDPISTMAIEDLISELKQQYTIVIVTHNMQQAARVSDQTAFFNLEAVGKPGRLVEIASTEKIFSNPNQKATEDYISGRFG,not soluble
13,MLGNIAEISNPNERRQAVKALVSAVKSDEDDSVRAAATDALYQRGEDAFDYLVAELAEMGGSEATERTATTLLTEWLSADHLEFRMVAATALGERGATAAVPDLVRALTDPAPRVRTRAAQACGRLSDPRVVPPLSERLSDGRQQVREAAANALGAIGTDRALAELVPVTQADEEGLRLIAVDELGQFGSVKPVVVLVDALDDDSTTVQRAAMLSLLELLTTASTEELELIRGTVVDELARADVQATVPALLDIAADGTRRRYRQTAIWLLSRITGDRYRSEVIDCLLSTLDKPDEETAQLAEAVLPELRSPELEKRLRVYLSRERGSEEARSRAQAVLDEICDGSSGELVTTGVDYTYVDSPADYTNQHSSRD,not soluble
14,MPGSPRPAPSWVLLLRLLALLRPPGLGEACSCAPAHPQQHICHSALVIRAKISSEKVVPASADPADTEKMLRYEIKQIKMFKGFEKVKDVQYIYTPFDSSLCGVKLEANSQKQYLLTGQVLSDGKVFIHLCNYIEPWEDLSLVQRESLNHHYHLNCGCQITTCYTVPCTISAPNECLWTDWLLERKLYGYQAQHYVCMKHVDGTCSWYRGHLPLRKEFVDIVQP,soluble
15,GPGSMETFRERTLANRYQPRQHLPPEFPGVLKEYAREVLREQPEDILQWSANYFKRLAREMDAKPAGEHRMTAPALPHLESRPNTREEEEEEYGERLQQYIDMFVEHDSENNGVLPVKAIKEALLKSYGLTLPQALYVLTATQLVEKEPVNYAEFACESFPALRFVWSTEHNFQVSNREDTTVHGLSRIDVQQEFLKLLRFADRSDTSLLSIDQYMDVLRCAPYHLTTRDLRILRVEAELNERHEVNYEEELLHIFDRLLLAEQFAQLDSDD,soluble
16,MTYLETAAQFYSEVAQTPQVGLCCVQSTPLQLPGLKIPLPMQEMNYGCGTTVHPTELGKQPTVLYVGVGGGLEALQFAYFSRRPGAVIAVEPVAAMREAAARNLEMALTDNPWFDSSFVEIREGDAFNLPVADGSVDIVAQNCLFNIFEPEDLTRALKEAYRVLKPGGRLQMSDPIATSPVPAHLQQDERLRAMCLSGALTYEEYTQRIIDAGFGQIEIRARRPYRLLDSQTYNLETHLLLESLDSVSFKVPMPEDGACIFTGRTAIYAGCDAFFDDKAGHILQRGIPATVCDKTAAKLATVKPKEVIITDSTWHYNGGGCCLEHHHHHH,soluble
17,MLGHNKISVIIPAYNEERRIGNVLKGIPDFVDEVIVVDDGSSDGTSKVAMELGATVIRLNKNSGKGAAMREGLKISTGDIIVFMDADGQHNPKEIYRLVKPIVEGRADLVIGRRIITRGKRPMSRKISNFITTRLITLKTRKKILDTQSGFRAIRREFVPVIESDRYEVETEVLIKAIKKGARILEVPISTRYDVETGHFKMIDIFRFLFALIKYLEHHHHHH,not soluble
18,MVHHDGTLQALITAYQKTPAFTDLAEATRKGYIRHIRQIEADFGDMPVQALADPRVRGEFLDWRDRLAQKSKRSADYAFSVLARILSWAHDRRKIPVNPCEKPGRLYTLEHHHHHH,not soluble
